This test has as its target SNAP-25 Reporter 1 (human) (UniProt P60880). Nature of the test: cell-based or functional assay.

Consider 1 substance from patent US20210373021A1.

Chain of UniProt P60880 (P60880 other isoform, or with tags, fused parts or gaps limits assumed): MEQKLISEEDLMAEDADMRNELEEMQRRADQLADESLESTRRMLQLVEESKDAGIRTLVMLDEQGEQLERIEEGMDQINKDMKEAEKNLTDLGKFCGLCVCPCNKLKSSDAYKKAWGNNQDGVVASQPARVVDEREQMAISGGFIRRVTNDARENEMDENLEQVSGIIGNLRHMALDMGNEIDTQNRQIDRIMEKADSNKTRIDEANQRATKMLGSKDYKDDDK

“Galderma BoNT/A drug product QM-1114 (from UniProt P0DPI0 2-1296) (enzyme)” showed an EC50 of SNAP-25 cleavage (Western blot), 4 hours at ambient temperature of 844 U/ml; an EC50 of SNAP-25 cleavage (Western blot), 22 hours at 37° C. of 687 U/ml; an EC50 of SNAP-25 cleavage (Western blot), 22 hours at room temperature of 204 U/ml; an EC50 of uncleaved product in RLU (sandwich ELISA), 22 hours at 37° C. of 112 U/ml. For the same substance, the EC50 of uncleaved product in RLU (sandwich ELISA), 22 hours at room temperature was 55.3 U/ml.
